Here are results for 2 substances from paper PMC11648839.

Assay [1] has as its target PmoA-eGFP (subunit A of the particulate methane monooxygenase enzyme complex, eGFP at the C-terminus) (UniProt Q607G3). The experiment in a line: FRET or BRET; FRET-FLIM in living tobacco leaf epidermal cells; eGFP fusion as donor, mRFP fusion as acceptor; two-photon excitation at 920 nm, TCSPC; lifetime of the donor with acceptor compared with donor alone; region of interest on the nucleus.

Assay [2] concerns the target eGFP-PmoA (subunit A of the particulate methane monooxygenase enzyme complex, eGFP at the N-terminus) (UniProt Q607G3). The description is as above.

On to “PmoC-mRFP (subunit C of the particulate methane monooxygenase enzyme complex, mRFP at the C-terminus) (natural protein)”, for which, in assay [1], the average eGFP (donor) fluorescence lifetime with acceptor came out at 2.2 ns and the Δ (reduction of donor lifetime against donor alone) is 0.2 ns.

In assay [1], “mRFP-PmoC (subunit C of the particulate methane monooxygenase enzyme complex, mRFP at the N-terminus) (natural protein)” gave an average eGFP (donor) fluorescence lifetime with acceptor of 2.2 ns and a Δ (reduction of donor lifetime against donor alone) of 0.2 ns. In assay [2], this substance displayed an average eGFP (donor) fluorescence lifetime with acceptor of 2.2 ns and a Δ (reduction of donor lifetime against donor alone) of 0.2 ns.
